Target: K. lactis 80S ribosome (40S and 60S subunits) (K. lactis)
Assay: co-sedimentation; 30 pmol eIF5B, 15 pmol K. lactis 80S ribosomes, 0.1 mM GDPNP in 30 uL of 20 mM Hepes pH 7.4, 50 mM KCl, 2 mM DTT, 2.5 mM Mg-acetate, 30 C for 5 min; pelleted through a 1 M sucrose cushion (80,000 rpm, 3 h, 4 C); pellets on SDS/PAGE, Coomassie, bands quantified and normalised to WT

Substance	fold reduction in ribosomal binding against WT
eIF5B-DIII-h12-Loop mutant (K. lactis eIF5B 361-967, residues 835-839 in S. cerevisiae numbering / 800-804 in K. lactis substituted to alanine) (domain or fragment)	2 fold
eIF5B-YxA mutant (K. lactis eIF5B 361-967, Tyr837 in S. cerevisiae numbering / Tyr802 in K. lactis substituted to alanine) (domain or fragment)	2 fold

Reference: PMC6983393
